From patent publication US20240109955A1 come the findings set out here.

Assay in all cases: cell-based or functional assay
Assay [1] concerns the target SARS-CoV-2 spike protein, Omicron sublineage BF.7 (R346T, F486V) (SARS-CoV-2) (UniProt P0DTC2).
Assay [2] has as its target SARS-CoV-2 spike protein, Omicron sublineage BQ.1.1 (R346T, K444T, F486V) (SARS-CoV-2) (UniProt P0DTC2).
The target in assay [3] is SARS-CoV-2 spike protein, Omicron sublineage BA.4.7 (R346S, F486V) (SARS-CoV-2) (UniProt P0DTC2).
The target of assay [4] is SARS-CoV-2 spike protein, Omicron sublineage BA.4.6 (R346T, F486V) (SARS-CoV-2) (UniProt P0DTC2).
Assay [5] addresses SARS-CoV-2 spike protein, Omicron sublineage BA.1.1 (R346K) (SARS-CoV-2) (UniProt P0DTC2).
For assay [6], the target named is SARS-CoV-2 Omicron BA.4.6 spike protein (R346T, F486V) (SARS-CoV-2) (UniProt P0DTC2).
Assay [7] deals with SARS-CoV-2 spike protein, Omicron variant (B.1.1.529) (SARS-CoV-2) (UniProt P0DTC2).
Assay [8] has as its target SARS-CoV-2 spike protein, Omicron sublineage BA.1.1 (R346K) (SARS-CoV-2) (UniProt P0DTC2). This is another data set of the same source.
For assay [9], the target named is SARS-CoV-2 spike protein, Omicron variant BQ.1.1 (SARS-CoV-2).
Assay [10] addresses SARS-CoV-2 Omicron variant BA.2.75.2 spike protein (SARS-CoV-2).
Assay [11] concerns the target SARS-CoV-2 Omicron variant BQ.1.1 spike protein (SARS-CoV-2).
The target in assay [12] is SARS-CoV-2 Omicron variant BA.4/5 spike protein (SARS-CoV-2).
In assay [13] the target is SARS-CoV-2 spike protein, Omicron variant BA.2.75.2 (SARS-CoV-2).
The target in assay [14] is SARS-CoV-2 spike protein, Omicron variant BA.4/5 (SARS-CoV-2).
The target in assay [15] is SARS-CoV-2 spike (S) protein, Alpha variant (B.1.1.7) (SARS-CoV-2) (UniProt P0DTC2).
Assay [16] has as its target SARS-CoV-2 spike (S) protein, Omicron variant BA.1 (SARS-CoV-2) (UniProt P0DTC2).
The target of assay [17] is SARS-CoV-2 spike (S) protein, Omicron variant BA.2 (SARS-CoV-2) (UniProt P0DTC2).
The target in assay [18] is SARS-CoV-2 spike (S) protein, Omicron variant BA.2.12.1 (SARS-CoV-2) (UniProt P0DTC2).
Assay [19] concerns the target SARS-CoV-2 spike protein, Alpha variant (B.1.1.7) (SARS-CoV-2).
For assay [20], the target named is SARS-CoV-2 spike (S) protein, Omicron variant BA.4/5 (SARS-CoV-2) (UniProt P0DTC2).
Assay [21] addresses SARS-CoV-2 spike protein, Delta variant (B.1.617.2) (SARS-CoV-2).
For assay [22], the target named is SARS-CoV-2 spike (S) protein, Lambda variant (C.37) (SARS-CoV-2) (UniProt P0DTC2).
The target of assay [23] is SARS-CoV-2 spike (S) protein, Omicron variant BA1.1.529 (SARS-CoV-2) (UniProt P0DTC2).
Assay [24] has as its target SARS-CoV-2 spike (S) protein, Iota variant (B.1.526) (SARS-CoV-2) (UniProt P0DTC2).
In assay [25] the target is SARS-CoV-2 spike (S) protein, Mu variant (B.1.621) (SARS-CoV-2) (UniProt P0DTC2).
The target in assay [26] is SARS-CoV-2 spike protein, Gamma variant (P.1) (SARS-CoV-2).
Assay [27] has as its target SARS-CoV-2 spike (S) protein, C.1.2 variant (SARS-CoV-2) (UniProt P0DTC2).
The target of assay [28] is SARS-CoV-2 spike protein, Beta variant 1 (B.1.351.v1) (SARS-CoV-2).

Read-outs that look alike come from different tables or passages of the source. Some results are limits rather than exact numbers.

Sequence of A19-46 (antibody) (VH): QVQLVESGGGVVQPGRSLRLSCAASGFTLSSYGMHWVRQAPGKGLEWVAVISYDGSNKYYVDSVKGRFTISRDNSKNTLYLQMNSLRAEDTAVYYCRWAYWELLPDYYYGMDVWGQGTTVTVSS
Sequence of A19-46 (antibody) (VL): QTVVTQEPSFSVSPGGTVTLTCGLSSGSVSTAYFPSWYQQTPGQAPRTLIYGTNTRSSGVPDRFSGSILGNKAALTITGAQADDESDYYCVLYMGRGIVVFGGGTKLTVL

bebtelovimab (antibody): the IC50, pseudovirus neutralization in [1] was 8.51 nM; in [2], > 10000 nM; in assay [3], 11.4 nM; in assay [4], 11.5 nM; in assay [5], 26.4 nM; in assay [7] it was 0.32 nM. Moreover, the IC50, pseudovirus neutralization in assay [8] stood at 26.4 nM. Further, the IC80, pseudovirus neutralization in assay [1] is 24.5 nM; in assay [2] it was > 10000 nM; in assay [3], 22.4 nM; in assay [4] it was 28.1 nM; in assay [5], 65.1 nM; in [6], 1 nM. In addition, the IC80, pseudovirus neutralization worked out at 15.6 nM in assay [7] and 65.1 nM in [8].

Take A19-46 (antibody): the IC50, pseudovirus neutralization is 0.386 µg/mL in assay [9]; > 10 µg/mL in assay [10]; 0.386 µg/mL in assay [11]; > 10 µg/mL in assay [12]; > 10 µg/mL in assay [13]; > 10 µg/mL in assay [14]. Moreover, the IC80, pseudovirus neutralization in [9] was 1.11 µg/mL; in [10], > 10 µg/mL; in assay [11], 1.11 µg/mL; in [12] it was > 10 µg/mL; in assay [13], > 10 µg/mL; in assay [14], > 10 µg/mL.

On to LY-CoV555 (antibody), for which the pseudovirus neutralization IC50 is 0.0145 nM in assay [15], > 67 nM in [16] and > 67 nM in assay [17]. In addition, the pseudovirus neutralization IC80 is 0.0361 nM in assay [15], > 67 nM in [16] and > 67 nM in assay [17].

With B1-182.1 (antibody), the pseudovirus neutralization IC50 (nM (inferred)) is 0.739 in assay [18]; 1.03 in [16]; > 66.7 in assay [20]; 0.0049 in assay [22]; 2.55 in assay [23]; 0.0639 in [24]. Also, the pseudovirus neutralization IC50 (nM (inferred)) was determined as 0.0695 in assay [25], 0.0549 in assay [27] and 2.12 in assay [17]. Besides, the pseudovirus neutralization IC80 (nM (inferred)) is 5.92 in assay [18]; 4.44 in assay [16]; > 66.7 in assay [20]; 0.015 in assay [22]; 6.47 in [23]; 0.183 in [24]. Besides, the pseudovirus neutralization IC80 (nM (inferred)) amounted to 0.219 in assay [25], 0.11 in assay [27] and 8.5 in [17]. Further, the IC50, pseudovirus neutralization in assay [19] was determined as 0.0262 nM; in assay [21], 0.0099 nM; in assay [7], 401 nM; in assay [26], 0.0182 nM; in [8], 213 nM; in [28] it was 0.0357 nM. For the same substance, the IC80, pseudovirus neutralization in [19] turned out to be 0.0844 nM; in assay [21] it was 0.0254 nM; in [7], 1020 nM; in assay [26], 0.0429 nM; in assay [8], 1300 nM; in assay [28], 0.139 nM.

“MX500 (A19-46 × A23-58H/B1-182L/A23-58H/B1-182L × A19-61)”: the IC50, pseudovirus neutralization in [1] is > 10000 nM; in assay [2], > 10000 nM; in assay [3] it was > 10000 nM; in assay [4], > 10000 nM; in [5] it was 45.1 nM; in assay [18], 0.0655 nM. The values for the IC50, pseudovirus neutralization in assay [16] and in assay [17] were 0.0639 nM and 0.0151 nM, respectively. For the same substance, the IC80, pseudovirus neutralization is > 10000 nM in assay [1]; > 10000 nM in [2]; > 10000 nM in assay [3]; > 10000 nM in [4]; 83.4 nM in assay [5]; 0.145 nM in assay [18]. For the same substance, the IC80, pseudovirus neutralization in [16] came out at 0.204 nM; in assay [17], 0.0503 nM.

Take A19-61.1 (antibody): the pseudovirus neutralization IC50 (nM (inferred)) in assay [18] was 0.11; in assay [16], > 66.7; in assay [20], 0.128; in [22], 0.11; in assay [23] it was > 66.7; in [24] it was 0.0418. For the same substance, the pseudovirus neutralization IC50 (nM (inferred)) worked out at 0.264 in assay [25], 8.43 in assay [27] and 0.0607 in [17]. The pseudovirus neutralization IC80 (nM (inferred)) in assay [18] was 0.298; in assay [16] it was > 66.7; in [20], 0.322; in [22], 0.186; in assay [23] it was > 66.7; in [24] it was 0.0836. Further, the pseudovirus neutralization IC80 (nM (inferred)) in assay [25] is 0.43; in [17], 0.17. Moreover, the IC50, pseudovirus neutralization stood at 0.175 nM in [19]; 0.209 nM in assay [21]; 540 nM in assay [6]; 0.135 nM in [26]; 0.0686 nM in [28]. For the same substance, the IC80, pseudovirus neutralization in assay [19] was 0.325 nM; in assay [21], 0.292 nM; in assay [6] it was 2170 nM; in assay [26] it was 0.288 nM; in assay [28], 0.113 nM.

As to “MX501 (A19-46 × A23-58H/B1-182L/A19-61 × A23-58H/B1-182L)”, the IC50, pseudovirus neutralization in [1] was > 10000 nM; in [2] it was > 10000 nM; in [3], > 10000 nM; in assay [4], > 10000 nM; in [5], 20.5 nM; in assay [18], 0.0405 nM. Further, the IC50, pseudovirus neutralization in [16] stood at 0.0285 nM; in assay [17] it was 0.0097 nM. In addition, the IC80, pseudovirus neutralization in assay [1] is > 10000 nM; in assay [2], > 10000 nM; in assay [3], > 10000 nM; in assay [4], > 10000 nM; in [5] it was 77.2 nM; in assay [18], 0.0927 nM. Moreover, the IC80, pseudovirus neutralization in [16] stood at 0.0876 nM; in assay [17], 0.025 nM.
